This is an account of results in US20160200786A1.

Ends that are not written are not given here.

The Kd is the concentration at which binding is half-saturated. As a reminder, the IC50 is the concentration at which inhibition is half-maximal. The low end stands for inhibition by little substance, the high end for a need for much substance.

Assay [1] deals with GST-BCL-2δC21 fusion protein [GST: P08515]. Description: fluorescence polarization, 25 nM fluorescein-peptide titrated with GST-BCL-2, 37 C.
The target is the same in assay [2]. Description: fluorescence polarization, unlabelled peptide displacing 25 nM fluoresceinated BIDBH3 from 1 µM GST-BCL-2. (In general: Fluorescence polarisation rises when a labelled molecule tumbles more slowly, as on binding a larger partner.)
The target is the same in assay [3]. Briefly: fluorescence polarization, 25 nM fluorescein-peptide titrated with GST-BCL-2, 37 C; SD +/- 272.
Assay [4] has the same target. Briefly: fluorescence polarization, unlabelled peptide displacing 25 nM fluoresceinated BIDBH3 from 1 µM GST-BCL-2; SD +/- 1648.
Assay [5] shares this target. Description: fluorescence polarization, 25 nM fluorescein-peptide titrated with GST-BCL-2, 37 C; SD +/- 6.
The target is the same in assay [6]. Description: fluorescence polarization, unlabelled peptide displacing 25 nM fluoresceinated BIDBH3 from 1 µM GST-BCL-2; SD +/- 60.
Assay [7] shares this target. Briefly: fluorescence polarization, Kd of BADBH3 against Kd of BIDBH3 on BCL-2.
Assay [8] shares this target. Briefly: fluorescence polarization, 25 nM fluorescein-peptide titrated with GST-BCL-2, 37 C; SD +/- 11.

For the molecule NOXAABH3 (peptide), the Kd in assay [1] was greater than 1000 nM. The molecule also registered an IC50 in assay [2] greater than 30000 nM.

Consider NOXABBH3 (peptide), for which, in assay [1], the Kd was greater than 1000 nM. This molecule also yielded an IC50 in assay [2] greater than 30000 nM.

B1: BCLXBH3 (peptide)
peptide: VIPMAAVKQALREAGDEFEL
modifications: fluorescein at the amino-terminus via an AHA linker in the Kd assays; unlabelled as competitor and on mitochondria
Consider B1, for which the Kd in assay [1] is greater than 1000 nM. This molecule had an IC50 in assay [2] greater than 30000 nM.

MEGSDALALRLACIGDEMDV (not fully specified) [BIKBH3] displayed a Kd in assay [3] of 485 nM. In assay [4], this molecule returned an IC50 of 4920 nM.

Consider EDIIRNIARHAAQVGASMDR (not fully specified) [BIDBH3 mut], for which the Kd in assay [1] is greater than 1000 nM. Besides, the IC50 in assay [2] is greater than 30000 nM.

In turn, LWAAQRYGRELRRMSDEFEGSFKGL (not fully specified) [mBADBH3] showed a Kd in assay [5] of 39 nM. Moreover, the IC50 in assay [6] worked out at 173 nM.

In the case of NLWAAQRYGRELRRMSDEFVDSFKK (not fully specified) [BADBH3], the fold greater affinity than BIDBH3 peptide in assay [7] was found to be 5 fold. Further, the Kd in assay [8] was determined as 41 nM.
